Series [1] has as its target microtubules (polymerized tubulin). Put plainly: optical tweezers (single-trap assay); single GST-D384 molecules on a trapped bead, polarity-marked microtubules fixed on glass (amino-silane, glutaraldehyde), trap stiffness 16 fN/nm, 1 mM ATP; duty ratio calculated from the decay of peak force/displacement (run length), (1-rd)^2 = 0.26.
For series [2] the target is unchanged. Put plainly: optical tweezers (single-trap assay) + other: in vitro motility assay; duty ratio calculated from the velocity of a single GST-D384 molecule at no load (387 nm/s) and the microtubule gliding velocity (481 nm/s) at 1 mM ATP.
The test system of series [3] is T1, Nc1ncnc2c1ncn2[C@@H]1O[C@H](COP(=O)(O)OP(=O)(O)OP(=O)(O)O)[C@@H](O)[C@H]1O.
T1 construct: motor domain with short tail Gly1288-Glu4646 (384 kDa), N-terminal FLAG tag and BCCP kept; Sf9 baculovirus; monomer
Description: purified protein. In kind it is biochemical, Homo sapiens. The note with it: basal, no microtubules, 25 °C.

The test system is the same in series [4]. Put plainly: optical tweezers, mean displacement of single-headed dynein against ATP. The class given is biochemical, Homo sapiens. The note with it: with microtubules (paclitaxel), pH 7.2, 25 mM PIPES, 25 mM K-acetate, 2 mM MgCl2, 25 °C, half of power stroke size.
For series [5], the target named is microtubules (polymerized tubulin).
microtubules (polymerized tubulin), sequence (chain, as listed by the source, chain 1 of 2): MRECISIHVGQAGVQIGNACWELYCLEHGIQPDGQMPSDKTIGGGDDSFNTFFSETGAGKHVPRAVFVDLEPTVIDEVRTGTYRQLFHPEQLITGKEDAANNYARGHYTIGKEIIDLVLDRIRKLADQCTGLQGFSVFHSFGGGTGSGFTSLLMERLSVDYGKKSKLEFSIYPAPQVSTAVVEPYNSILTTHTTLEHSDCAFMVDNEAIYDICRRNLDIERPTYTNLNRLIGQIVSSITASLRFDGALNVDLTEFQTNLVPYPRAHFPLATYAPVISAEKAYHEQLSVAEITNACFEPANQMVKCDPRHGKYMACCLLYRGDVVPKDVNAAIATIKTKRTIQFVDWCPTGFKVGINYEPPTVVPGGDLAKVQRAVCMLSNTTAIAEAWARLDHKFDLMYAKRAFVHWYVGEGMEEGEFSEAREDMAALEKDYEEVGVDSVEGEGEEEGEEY
microtubules (polymerized tubulin), sequence (chain, as listed by the source, chain 2 of 2): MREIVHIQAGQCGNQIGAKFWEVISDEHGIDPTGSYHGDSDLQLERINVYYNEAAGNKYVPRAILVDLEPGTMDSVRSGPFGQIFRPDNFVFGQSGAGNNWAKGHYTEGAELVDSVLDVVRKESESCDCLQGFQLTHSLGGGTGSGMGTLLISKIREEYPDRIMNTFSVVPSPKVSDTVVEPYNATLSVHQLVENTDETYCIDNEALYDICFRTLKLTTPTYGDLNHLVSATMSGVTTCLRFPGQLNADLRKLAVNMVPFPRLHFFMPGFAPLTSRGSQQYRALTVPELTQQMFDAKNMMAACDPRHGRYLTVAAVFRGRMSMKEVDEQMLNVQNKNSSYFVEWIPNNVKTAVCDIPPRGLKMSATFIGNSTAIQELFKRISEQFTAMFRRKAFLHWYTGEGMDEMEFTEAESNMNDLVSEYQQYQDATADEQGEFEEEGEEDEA

The values below come from paper PMC6218510, “Step Sizes and Rate Constants of Single-headed Cytoplasmic Dynein Measured with Optical Tweezers” (Scientific Reports, 2018).

By Km is commonly meant the concentration of substrate that gives half-maximal velocity.

“artificially dimerized dynein construct GST-D384, Q14204 1288-4646”: the values for the duty ratio rd (fraction of time that each head spends attached to a microtubule) in series [1] and in series [2] were 0.49 and 0.59, respectively.

On to “D384 (single-headed human cytoplasmic dynein-1 motor domain) (Homo sapiens)”, for which the Km in series [3] was 31 ± 4 µM. In addition, the K0.5 in series [4] is 17.6 ± 0.5 µM.

For “human cytoplasmic dynein monomer construct D384, Q14204 1288-4646”, in series [5], the Km^MT: Michaelis-Menten constant for microtubules of the microtubule-stimulated ATPase of D384 (EnzChek phosphate assay, 35 nM dynein, 0-25 μM microtubules, 1 mM ATP, 25 °C) stood at 50 µM.
